Test results from PMC3460915, “Identification, Characterization and Application of a G-Quadruplex Structured DNA Aptamer against Cancer Biomarker Protein Anterior Gradient Homolog 2”.

Tests used:
[1] = target: T1, GST-AGR2 (on GSH-Sepharose beads) (UniProt O95994 21-175); experiment: flow cytometry bead binding; 1x PBS (137 mM NaCl, 2.7 mM KCl, 10 mM Na2HPO4, 2.0 mM KH2PO4), pH 7.4, 37 C, 45 min, 200 uL; K+ varied in Fig 4; conditions: protein: recombinant, (pGEX-GST-AGR2)
[2] = target: T1, GST-AGR2 (on GSH-Sepharose beads); experiment: flow cytometry bead binding; with K+; 1x PBS (137 mM NaCl, 2.7 mM KCl, 10 mM Na2HPO4, 2.0 mM KH2PO4), pH 7.4, 37 C, 45 min, 200 uL; K+ varied in Fig 4; conditions: protein: recombinant; (pGEX-GST-AGR2); label: 3' FAM; intramolecular parallel G4
[3] = target: GST (on GSH-Sepharose beads) (UniProt P08515 1-218); experiment: flow cytometry bead binding; 1x PBS (137 mM NaCl, 2.7 mM KCl, 10 mM Na2HPO4, 2.0 mM KH2PO4), pH 7.4, 37 C, 45 min, 200 uL; K+ varied in Fig 4; conditions: protein: recombinant; chain copies: 2; label: FAM
GST (on GSH-Sepharose beads), sequence (P08515 whole entry): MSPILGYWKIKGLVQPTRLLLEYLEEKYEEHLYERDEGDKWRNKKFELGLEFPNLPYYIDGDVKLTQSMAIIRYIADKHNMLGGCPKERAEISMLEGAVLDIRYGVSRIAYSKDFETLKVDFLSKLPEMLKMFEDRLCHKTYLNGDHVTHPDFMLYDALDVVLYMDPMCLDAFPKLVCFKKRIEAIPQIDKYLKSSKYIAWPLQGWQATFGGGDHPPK

Streptavidin (SA beads) = Streptavidin (SA beads) (UniProt P22629 25-183); experiment: SA-bead flow cytometry (allosteric beacon); with AGR2; 1x PBS (137 mM NaCl, 2.7 mM KCl, 10 mM Na2HPO4, 2.0 mM KH2PO4), pH 7.4, 37 C, 45 min, 200 uL; K+ varied in Fig 4; conditions: protein: commercial; chain copies: 4; label: 3' FAM; hairpin
Streptavidin (SA beads), sequence (P22629 25-183): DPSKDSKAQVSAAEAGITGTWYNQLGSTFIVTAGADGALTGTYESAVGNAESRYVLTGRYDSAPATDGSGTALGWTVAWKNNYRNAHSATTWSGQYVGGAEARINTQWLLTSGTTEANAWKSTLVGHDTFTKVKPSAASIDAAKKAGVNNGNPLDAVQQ

Thrombin = Thrombin (UniProt P00734;P00734 328-363;364-622); experiment: SA-bead flow cytometry (allosteric beacon); 500 nM; SA beads; 1x PBS (137 mM NaCl, 2.7 mM KCl, 10 mM Na2HPO4, 2.0 mM KH2PO4), pH 7.4, 37 C, 45 min, 200 uL; K+ varied in Fig 4
[4] = target: T1, GST-AGR2 (on GSH-Sepharose beads); experiment: SA-bead flow cytometry (allosteric beacon); SA beads; 100 nM AGR2 detected; 1x PBS (137 mM NaCl, 2.7 mM KCl, 10 mM Na2HPO4, 2.0 mM KH2PO4), pH 7.4, 37 C, 45 min, 200 uL; K+ varied in Fig 4; conditions: protein: recombinant; (pGEX-GST-AGR2); label: 3' FAM; hairpin

T1 sequence (O95994 21-175): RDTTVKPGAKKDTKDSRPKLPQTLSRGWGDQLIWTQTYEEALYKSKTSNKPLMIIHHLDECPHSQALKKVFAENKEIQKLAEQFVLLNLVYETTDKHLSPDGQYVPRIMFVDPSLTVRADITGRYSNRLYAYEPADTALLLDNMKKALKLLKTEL

## CGGGTGGGAGTTGTGGGGGGGGGTGGGAGGGTT (structured_DNA) [C14B1]
[1]; label: 3' FAM, intramolecular parallel G4
  Kd: 0.0191 ± 0.0051 µM
[2]
  Kd: 0.0062 ± 0.0019 µM

B1: C14B0 (ssDNA)
DNA: CGGGTGGGAGTTGTGGGGGGGGGTGGGAGGGTTCTTTGTTTGATCTTTCTCGCTGCCTGGCCCTAGAGTG
[1]; label: FAM
  Kd: 0.0085 ± 0.0036 µM

B2: C14B (ssDNA)
DNA: TCTCGGACGCGTGTGGTCGGGTGGGAGTTGTGGGGGGGGGTGGGAGGGTTCTTTGTTTGATCTTTCTCGCTGCCTGGCCCTAGAGTG
[3]
  binding result: no binding
[1]; label: FAM
  Kd: 0.0131 ± 0.0072 µM

B3: AGR2-aMB (structured_DNA)
DNA: CGACGCACCGATCGCAGGTTCGGGATTTTCGGGTGGGAGTTGTGGGGGGGGGTGGGAGGGTT
Streptavidin (SA beads)
  binding result: binds
Thrombin
  binding result: no binding
[4]
  binding result: binds

B4: C14A (ssDNA)
DNA: TCTCGGACGCGTGTGGTCGGGGGGGCGGGGGTTGGGTGGTGGCTTCATTTTGTTTCACGTCGTCCTCGCTGCCTGGCCCTAGAGTG
[1]; label: FAM
  Kd: 0.0209 ± 0.0052 µM

B5: C14C (ssDNA)
DNA: TCTCGGACGCGTGTGGTCGGCGTTGGGTGGGGGTGGCGGGGGTAGGGTGGTAGGTCGCTAAAATGCTCGCTGCCTGGCCCTAGAGTG
[1]; label: FAM
  Kd: 0.0446 ± 0.007 µM

B6: C14D (ssDNA)
DNA: TCTCGGACGCGTGTGGTCGGTGCATTCTTCTGTTCTTTTAGTGTTTTGTGTTGTATGTTCTTATCCTCGCTGCCTGGCCCTAGAGTG
[1]; label: FAM
  Kd: 0.0484 ± 0.0156 µM
